One block for each binder: values may come before it.
Molecular target: Bcl-xL, Q07817
Experiment: peptide SPOT array, c-Myc-tagged receptor at 1 uM or 100 nM, anti-c-Myc-Cy3

Sequence of Bcl-xL, Q07817 (Q07817 1-209): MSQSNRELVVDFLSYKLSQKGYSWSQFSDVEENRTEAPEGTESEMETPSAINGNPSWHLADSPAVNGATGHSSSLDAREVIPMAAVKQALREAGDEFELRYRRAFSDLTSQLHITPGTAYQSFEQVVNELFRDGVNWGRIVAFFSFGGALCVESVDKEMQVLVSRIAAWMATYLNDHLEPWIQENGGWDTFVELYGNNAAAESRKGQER

Binder: AHKARALARLLRQTALAAFSDFKRLQ [FAM43B]
SPOT signal as a fraction of Bim BH3's signal on the same receptor and array: 0.65

Binder: YGRLRPRARSLSKALTAINWLTKKFL [MYO15A]
SPOT signal as a fraction of Bim BH3's signal on the same receptor and array: 0.94

Binder: SAKLGKSSSLLTQTSEECNGILTEKM [ZNF396]
SPOT signal as a fraction of Bim BH3's signal on the same receptor and array: 0.02

Binder: LQETTLVANQLREAASRLKWTTNTGP [MAN2B1]
SPOT signal as a fraction of Bim BH3's signal on the same receptor and array: 0.06

Binder: QAEADHLGKELQSVSAKLQAQVEENE [GOLGA6L1]
SPOT signal as a fraction of Bim BH3's signal on the same receptor and array: 0.02

Binder: QEQLLTLASILREDGKVFDEKVYYTA [HEBP2]
SPOT signal as a fraction of Bim BH3's signal on the same receptor and array: 0.03

Binder: SGEFREIGTVIDQIAETLWEQVFSKL [ATL2]
SPOT signal as a fraction of Bim BH3's signal on the same receptor and array: 0.03

Binder: LEKQNNSASDLHEISNEILRIIERTG [GPR112]
SPOT signal as a fraction of Bim BH3's signal on the same receptor and array: 0.02

Binder: NKDGKSVSNRDRRLSDNCGGKVLSIT [KIAA0430]
SPOT signal as a fraction of Bim BH3's signal on the same receptor and array: 0.22

Binder: LAELQQRSDQLLDMSSTFNKTTQNLA [VAMP5]
SPOT signal as a fraction of Bim BH3's signal on the same receptor and array: 0.02

Binder: YRDLPLAAVDLSTAGSQLLSNLDEDY [C15orf27]
SPOT signal as a fraction of Bim BH3's signal on the same receptor and array: 0.02

Binder: GQISDEVAERLMTIAYESGVNLFDTA [KCNAB1]
SPOT signal as a fraction of Bim BH3's signal on the same receptor and array: 0.02

The next lines start with the values.

SPOT signal as a fraction of Bim BH3's signal on the same receptor and array: 0.18
Binder: GFANHDVVEVLRNALQVVHLTLVRRK [INADL]

SPOT signal as a fraction of Bim BH3's signal on the same receptor and array: 1.82
Binder: YKGHREIARYDLEQGAQVNRRSAKGN [FEM1A]

SPOT signal as a fraction of Bim BH3's signal on the same receptor and array: 0.02
Binder: SCMATVIHNPDKALGDQFYKEAIEHC [DPF3]

SPOT signal as a fraction of Bim BH3's signal on the same receptor and array: 0.26
Binder: AIKSQRMVQNLLSLARKICERVHRSP [ZBED4]

SPOT signal as a fraction of Bim BH3's signal on the same receptor and array: 0.03
Binder: YEHLRQFCLELNGLAVKLQSECHPDT [MOBKL3]

SPOT signal as a fraction of Bim BH3's signal on the same receptor and array: 0.03
Binder: FPDARDMVRYLGDFADTLGLRVQYNT [FOXRED2]

SPOT signal as a fraction of Bim BH3's signal on the same receptor and array: 0.05
Binder: KSRLVQQSKADKELADELQERCQRPA [TRIM58]

SPOT signal as a fraction of Bim BH3's signal on the same receptor and array: 0.87
Binder: KTRADSVANKLGSFSKTLGIKLKKNM [OTUD7A]

SPOT signal as a fraction of Bim BH3's signal on the same receptor and array: 0.97
Binder: RYRHGAPAEQLRHLLDMLTTKWATLQ [PLEKHH1]

SPOT signal as a fraction of Bim BH3's signal on the same receptor and array: 0.03
Binder: EEQLEKLIKKLRKASEGLNSTLKDHI [CCDC76]
